From publication PMC12802937 (Nucleic Acids Research, 2026)

What was measured:
Experiment in all cases: SPR; Lge1-CT immobilised on a CM5 chip, Bre1-LR flown over; Biacore 8K, 25°C, 20 mM HEPES (pH 7.5), 200 mM sodium chloride, 0.02% Tween 20
Settings in all cases: both partners purified
Bre1-LR K534E = biological target: T1, Bre1-LR K534E (budding yeast, UniProt Q07457 227-700, K534E)
T1 construct: source: E. coli BL21 Rosetta (DE3), purified (Ni-NTA, heparin, gel filtration)
T1 sequence (looked up): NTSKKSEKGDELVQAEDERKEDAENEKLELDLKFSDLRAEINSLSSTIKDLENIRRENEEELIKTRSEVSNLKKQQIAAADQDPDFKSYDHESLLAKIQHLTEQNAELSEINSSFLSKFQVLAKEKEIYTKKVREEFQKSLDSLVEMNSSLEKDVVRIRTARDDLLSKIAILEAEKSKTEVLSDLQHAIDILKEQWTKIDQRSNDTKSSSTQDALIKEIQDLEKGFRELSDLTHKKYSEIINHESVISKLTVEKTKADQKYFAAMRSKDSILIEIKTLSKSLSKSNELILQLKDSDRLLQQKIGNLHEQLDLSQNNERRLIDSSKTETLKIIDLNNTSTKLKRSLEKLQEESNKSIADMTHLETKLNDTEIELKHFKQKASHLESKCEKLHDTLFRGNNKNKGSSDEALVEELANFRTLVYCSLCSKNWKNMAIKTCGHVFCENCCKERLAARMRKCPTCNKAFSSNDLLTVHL

Bre1-LR V382N = biological target: T2, Bre1-LR V382N (budding yeast, UniProt Q07457 227-700, V382N)
T2 construct: source: E. coli BL21 Rosetta (DE3), purified (Ni-NTA, heparin, gel filtration)
T2 sequence (looked up): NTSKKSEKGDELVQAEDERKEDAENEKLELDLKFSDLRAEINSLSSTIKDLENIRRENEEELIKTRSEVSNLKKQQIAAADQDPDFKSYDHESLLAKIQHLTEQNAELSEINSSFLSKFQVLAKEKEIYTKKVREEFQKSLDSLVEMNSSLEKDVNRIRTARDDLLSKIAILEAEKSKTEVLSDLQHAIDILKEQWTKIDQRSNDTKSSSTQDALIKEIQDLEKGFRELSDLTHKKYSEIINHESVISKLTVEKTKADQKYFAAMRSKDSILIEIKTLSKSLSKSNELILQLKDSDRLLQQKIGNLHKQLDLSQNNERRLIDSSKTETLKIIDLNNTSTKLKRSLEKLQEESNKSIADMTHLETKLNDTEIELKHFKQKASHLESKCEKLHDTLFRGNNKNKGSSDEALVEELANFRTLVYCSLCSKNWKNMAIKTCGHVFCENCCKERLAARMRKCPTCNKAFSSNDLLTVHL

Bre1-LR A489N = biological target: T3, Bre1-LR A489N (budding yeast, UniProt Q07457 227-700, A489N)
T3 construct: source: E. coli BL21 Rosetta (DE3), purified (Ni-NTA, heparin, gel filtration)
T3 sequence (looked up): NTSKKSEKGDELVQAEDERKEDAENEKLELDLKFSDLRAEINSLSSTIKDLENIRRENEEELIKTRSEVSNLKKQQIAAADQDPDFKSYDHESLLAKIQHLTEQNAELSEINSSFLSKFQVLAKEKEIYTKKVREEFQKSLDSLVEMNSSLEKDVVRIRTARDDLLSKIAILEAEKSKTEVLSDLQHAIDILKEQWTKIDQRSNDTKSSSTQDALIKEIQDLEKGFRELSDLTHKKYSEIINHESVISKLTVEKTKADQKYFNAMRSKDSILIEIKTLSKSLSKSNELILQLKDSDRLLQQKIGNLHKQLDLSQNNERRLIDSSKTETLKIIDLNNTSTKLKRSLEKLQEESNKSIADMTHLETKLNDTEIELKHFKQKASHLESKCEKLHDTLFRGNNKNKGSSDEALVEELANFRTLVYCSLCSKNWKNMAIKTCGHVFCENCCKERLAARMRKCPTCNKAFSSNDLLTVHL

Bre1-LR E378K/E500K = biological target: T4, Bre1-LR E378K/E500K (budding yeast, UniProt Q07457 227-700, E378K | E500K)
T4 construct: source: E. coli BL21 Rosetta (DE3), purified (Ni-NTA, heparin, gel filtration)
T4 sequence (looked up): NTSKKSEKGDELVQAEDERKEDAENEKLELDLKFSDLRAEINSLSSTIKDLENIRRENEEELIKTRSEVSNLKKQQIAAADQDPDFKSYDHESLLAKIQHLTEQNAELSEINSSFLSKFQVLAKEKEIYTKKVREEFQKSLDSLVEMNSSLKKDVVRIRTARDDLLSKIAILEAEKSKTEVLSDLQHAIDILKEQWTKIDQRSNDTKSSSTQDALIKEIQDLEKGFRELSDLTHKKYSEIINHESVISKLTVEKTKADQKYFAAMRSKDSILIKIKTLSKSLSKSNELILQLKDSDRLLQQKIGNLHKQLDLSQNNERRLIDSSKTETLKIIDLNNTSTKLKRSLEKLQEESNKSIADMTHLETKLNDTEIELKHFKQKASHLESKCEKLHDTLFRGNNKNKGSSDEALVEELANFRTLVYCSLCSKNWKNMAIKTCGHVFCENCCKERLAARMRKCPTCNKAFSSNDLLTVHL

Bre1-LR K379E = biological target: T5, Bre1-LR K379E (budding yeast, UniProt Q07457 227-700, K379E)
T5 construct: source: E. coli BL21 Rosetta (DE3), purified (Ni-NTA, heparin, gel filtration)
T5 sequence (looked up): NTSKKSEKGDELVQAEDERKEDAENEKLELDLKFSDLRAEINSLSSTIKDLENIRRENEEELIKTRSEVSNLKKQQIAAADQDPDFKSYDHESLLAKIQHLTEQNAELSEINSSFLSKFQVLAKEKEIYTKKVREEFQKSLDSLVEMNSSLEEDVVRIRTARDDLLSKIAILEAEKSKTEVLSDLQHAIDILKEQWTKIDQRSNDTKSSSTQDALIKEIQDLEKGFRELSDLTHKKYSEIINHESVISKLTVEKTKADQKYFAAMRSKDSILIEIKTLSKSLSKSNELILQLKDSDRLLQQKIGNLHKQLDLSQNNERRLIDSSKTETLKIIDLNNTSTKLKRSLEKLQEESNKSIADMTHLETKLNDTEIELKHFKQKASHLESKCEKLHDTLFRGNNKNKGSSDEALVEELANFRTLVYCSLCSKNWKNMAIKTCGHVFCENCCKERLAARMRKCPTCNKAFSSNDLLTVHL

B1: Lge1-CT (Lge1 residues 261–332), intein-chitin binding domain (CBD) tag construct (domain or fragment, budding yeast, UniProt Q02796 261-332, looked up)
chain: KNVKKTNNTESECEKAREVFKESDSIDSALEELNLKINSNELELRLLNNQCDKHALNIQLTQEKLDSLLLMQ
notes: Lge1, budding yeast, residues 261-332; residues 268–331 resolved in the electron density; the intein-CBD tag is named on the protein in the pull-down; also called intein-CBD-fused Lge1-CT; intein-CBD-tagged Lge1-CT; source: E. coli BL21 Rosetta (DE3): cleared cell extract on chitin resin (pull-down); purified (chitin, heparin, gel filtration) for ITC and SPR; co-purified with Bre1-LR for the …
- Kd (Bre1-LR K534E): 19.4 nM
- Kd (Bre1-LR V382N): 63 nM
- Kd (Bre1-LR A489N): 41.1 nM
- Kd (Bre1-LR E378K/E500K): 29 nM
- Kd (Bre1-LR K379E): 41.3 nM
